Patent US20260176354A1, “ANTIBODY BINDING TO CD22, AND BISPECIFIC ANTIBODY, CHIMERIC ANTIGEN RECEPTOR AND ANTIBODY-DRUG CONJUGATE COMPRISING SAME, AND USE THEREOF” (THE ASAN FOUNDATION, priority 2022, published 2026)
Where a chain is given by its changes, count along the chain named.

T1: human CD22-His protein (Sino Biological Inc.) (human, UniProt P20273 20-687)
T1 construct: Bought protein coated on the ELISA plate (100 ng/well); not shown: His tag
T1 sequence (looked up): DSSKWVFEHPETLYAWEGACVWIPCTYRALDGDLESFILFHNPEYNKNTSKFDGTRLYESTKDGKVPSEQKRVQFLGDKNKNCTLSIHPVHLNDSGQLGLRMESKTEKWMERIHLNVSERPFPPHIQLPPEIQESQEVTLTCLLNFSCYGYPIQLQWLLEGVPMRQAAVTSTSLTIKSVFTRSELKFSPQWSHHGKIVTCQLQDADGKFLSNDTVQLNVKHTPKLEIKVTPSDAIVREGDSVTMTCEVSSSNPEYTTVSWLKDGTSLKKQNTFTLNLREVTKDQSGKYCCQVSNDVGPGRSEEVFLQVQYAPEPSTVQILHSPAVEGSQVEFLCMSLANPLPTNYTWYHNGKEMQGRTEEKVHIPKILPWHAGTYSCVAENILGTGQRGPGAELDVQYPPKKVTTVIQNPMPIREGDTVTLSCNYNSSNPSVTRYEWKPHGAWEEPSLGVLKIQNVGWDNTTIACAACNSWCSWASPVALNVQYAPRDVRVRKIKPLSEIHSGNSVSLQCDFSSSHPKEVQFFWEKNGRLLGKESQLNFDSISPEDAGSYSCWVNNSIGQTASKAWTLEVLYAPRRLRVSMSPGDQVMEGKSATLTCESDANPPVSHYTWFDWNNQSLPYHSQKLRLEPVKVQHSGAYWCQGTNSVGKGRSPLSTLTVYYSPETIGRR

T2: human CD22-His protein (Homo sapiens, UniProt P20273)
T2 construct: His; purchased Sino Biological Inc., Beijing, China
T2 sequence (P20273 20-847): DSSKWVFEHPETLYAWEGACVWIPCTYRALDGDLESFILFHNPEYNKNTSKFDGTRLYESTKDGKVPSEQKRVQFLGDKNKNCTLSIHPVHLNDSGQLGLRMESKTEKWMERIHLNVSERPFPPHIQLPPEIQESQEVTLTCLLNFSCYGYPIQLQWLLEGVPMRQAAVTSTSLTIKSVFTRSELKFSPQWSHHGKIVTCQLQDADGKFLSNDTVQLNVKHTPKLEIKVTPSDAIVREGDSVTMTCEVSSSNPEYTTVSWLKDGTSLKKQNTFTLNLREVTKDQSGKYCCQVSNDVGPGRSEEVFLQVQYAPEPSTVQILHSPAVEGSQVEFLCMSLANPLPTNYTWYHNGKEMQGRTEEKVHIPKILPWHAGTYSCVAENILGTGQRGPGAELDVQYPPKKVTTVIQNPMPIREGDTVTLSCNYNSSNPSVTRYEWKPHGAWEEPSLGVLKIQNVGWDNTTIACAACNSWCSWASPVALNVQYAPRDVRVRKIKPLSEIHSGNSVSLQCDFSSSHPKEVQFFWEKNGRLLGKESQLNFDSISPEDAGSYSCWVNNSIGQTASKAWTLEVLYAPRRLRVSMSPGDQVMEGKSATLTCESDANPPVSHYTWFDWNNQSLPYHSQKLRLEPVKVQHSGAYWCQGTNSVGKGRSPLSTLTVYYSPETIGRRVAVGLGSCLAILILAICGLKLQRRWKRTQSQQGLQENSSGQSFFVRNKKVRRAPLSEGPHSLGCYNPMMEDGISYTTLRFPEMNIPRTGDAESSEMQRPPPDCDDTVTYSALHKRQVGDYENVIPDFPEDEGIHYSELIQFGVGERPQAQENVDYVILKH

B1: recombinant anti-CD22 scFv-Cκ-HA fusion protein CI4-47 (scFv)
scFv: LTQPSSVSANPGETVKITCSGGSGGYGWYQQKSPGSAPVSLIYDNDQRPSDIPSRFSGSKSGSTGTLTITGVQADDEAVYYCGSYDSSYVGIFGAGTTLTVLGGGGSGGGGSGGGGSAVTLDESGGGLQTPGGALSLVCKASGFTFSNYCMQWVRQAPGKGLEWVAGIGSSGTGTYYGSAVRGRATISRDNGQSTVRLQLNNLRAEDTGTYYCARDYGSDSGCGWGIYAGEIDAWGHGTEVIVSSGGGGSGGGGSGGGGSRTVAAPSVFIFPPSDEQLKSGTASVVCLLNNFYPREAKVQWKVDNALQSGNSQESVTEQDSKDSTYSLSSTLTLSKADYEKHKVYACEVTHQGLSSPVTKSFNRGESGGAYPYDVPDYAS
notes: Chicken-derived scFv fused to a human constant kappa region and an HA tag; expressed in HEK293F cells, purified on KappaSelect; also called CI4-47 scFv-Cκ-HA
B2: anti-CD22 IgG protein 2-3-14 (antibody, V domains shown)
VH: AVTLDESGGGLQTPGGGLSLVCKASGFSFSDYGMGWVRQAPGKGLEFVASISNTGSYTDYGAAVKGRATISRDNGQSTLRLQLNNLRAEDTGTYFCAKSAYGGSYGSSSIDAWGHGTEVIVSS
VL: LTQPSSVSANPGETVKITCSGSNNTYGWYQQKAPGSAPVTVIYDNTNRPSDIPSRFSGSKSGSTNTLTITGVQAEDEAVYFCGSRDSTYVGIFGAGTTLTVLR
notes: also called Feb; 3, 2014
B3: anti-CD22 IgG protein 2-3-14_H1-24 (antibody, V domains shown)
VH: B2 VH with S28A, S30G, D31R, Y32S, G33S
VL: B2 VL
B4: anti-CD22 IgG protein 2-3-14_H2-40 (antibody, V domains shown)
VH: B2 VH with S50F, I51L, S52G, N53S, T54S, G55S
VL: B2 VL
B5: recombinant anti-CD22 scFv-Cκ-HA fusion protein 2-3-14 (scFv)
scFv: LTQPSSVSANPGETVKITCSGSNNTYGWYQQKAPGSAPVTVIYDNTNRPSDIPSRFSGSKSGSTNTLTITGVQAEDEAVYFCGSRDSTYVGIFGAGTTLTVLGGGGSGGGGSGGGGSAVTLDESGGGLQTPGGGLSLVCKASGFSFSDYGMGWVRQAPGKGLEFVASISNTGSYTDYGAAVKGRATISRDNGQSTLRLQLNNLRAEDTGTYFCAKSAYGGSYGSSSIDAWGHGTEVIVSSGGGGSGGGGSGGGGSRTVAAPSVFIFPPSDEQLKSGTASVVCLLNNFYPREAKVQWKVDNALQSGNSQESVTEQDSKDSTYSLSSTLTLSKADYEKHKVYACEVTHQGLSSPVTKSFNRGESGGAYPYDVPDYAS
notes: The text prints the clone name 2-3-14 as 'Feb; 3, 2014' in several paragraphs (date conversion artefact); also called Feb; 3, 2014; 2-3-14 scFv-Cκ-HA
B6: anti-CD22 IgG protein CI4-47_8-1_H1-2-37 (antibody, V domains shown)
VH: EVQLLESGGGLVQPGGSLRLSCAASGFTFSRHGMYWVRQAPGKGLEWVSGIGSSGTGTYYGSAVRGRFTISRDNSKNTLYLQMNSLRAEDTAVYYCARDYGSDSGVGWGIYAGEIDAWGQGTLVTVSS
VL: LTQPPSVSVSPGQTARITCSGGSGGYGWYQQKPGSAPVSVIYDNDQRPSGIPERFSGSSSGTTVTLTISGVQAEDEADYYCGSYDSSYVGIFGGGTKLTVLR
B7: anti-CD22 IgG protein CI4-47_8-1 (antibody, V domains shown)
VH: B6 VH with R31N, H32Y, G33C, Y35S, V106C
VL: B6 VL
B8: anti-CD22 IgG protein CI4-47_8-1_H1-2-1 (antibody, V domains shown)
VH: B6 VH with R31K, M34H, V106I
VL: B6 VL
B9: CI4-47: recombinant anti-CD22 scFv-Cκ-HA fusion protein (protein)
scFv: B1 scFv

What was measured:
[1] = molecular target: T1, human CD22-His protein (Sino Biological …); test: ELISA, human CD22-His coated, anti-human Cκ-HRP detection
Method: (§1) Microtiter plates (Corning Inc., MA, USA) were coated overnight at 4° C. with human CD22-His protein (100 ng/well, Sino Biological Inc., Beijing, China). The wells were blocked for 1 hour at 37° C. with 150 μl of 3% BSA (w/v) in PBS, and serial dilutions of the anti-CD22 scFv-Cκ-HA fusion protein, prepared in 3% BSA in PBS, were added to each well. After incubation for 1.5 hours at 37° C., the plates were washed three times with PBST (PBS containing 0.05% Tween-20), followed by incubation for 1 hour at 37° C. with an HRP-conjugated anti-human CK antibody (Millipore, CA, USA). The plates were washed three times with PBST, and the amount of bound antibody was determined by adding 2,2′-azino-bis(3-ethylbenzothiazoline-6-sulfonic acid) (Thermo Fisher Scientific Inc., MA, USA). The resulting OD₄₀₅ was measured using a microplate spectrophotometer.

[2] = molecular target: T1, human CD22-His protein (Sino Biological …); test: ELISA, human CD22-His coated, anti-human IgG Fc-HRP detection
Method: Microtiter plates (Corning Inc., MA, USA) were coated overnight at 4° C. with human CD22-His protein (100 ng/well, Sino Biological Inc., Beijing, China). The wells were blocked for 1 hour at 37° C. with 150 μl of 3% BSA (w/v) in PBS, after which serial dilutions of the IgG protein prepared in 3% BSA in PBS were added to each well. After incubation for 1.5 hours at 37° C., the plates were washed three times with PBST (PBS containing 0.05% Tween-20), followed by incubation for 1 hour at 37° C. with an HRP-conjugated anti-human IgG (Fc-specific) antibody (Thermo Fisher Scientific, USA). The plates were washed three times with PBST, and the amount of bound antibody was determined by adding 2,2′-azino-bis(3-ethylbenzothiazoline-6-sulfonic acid) (Thermo Fisher Scientific Inc., MA, USA). The resulting OD₄₀₅ was measured using a microplate spectrophotometer.

human CD22-His protein = molecular target: T2, human CD22-His protein; test: ELISA analysis using anti-CD22 scFv-Cκ-HA fusion protein; format: binding; conditions: serial dilutions, coated human CD22-His 100 ng/well, FIG. 1
Method: as §1, with “OD405” for “OD₄₀₅”

OCI-Ly7 cells = test: Flow cytometry analysis using anti-CD22 scFv-Cκ-HA fusion protein; format: binding, human; conditions: scFv-Cκ-HA fusion protein 0.25 μM; FIG. 2
Method: OCI-Ly7 cells were aliquoted into 1.5 ml tubes at a density of 3×10^5 cells per tube. The anti-CD22 scFv-Cκ-HA fusion protein (0.25 μM) was added to each tube, followed by incubation on ice for 30 minutes. After washing twice with MACS buffer (Miltenyi Biotec), the cells were incubated with Alexa Fluor 647-labeled mouse anti-HA antibody (Clone #912426, R&D Systems, MN, USA) on ice for 30 minutes. Then, the cells were washed twice with MACS buffer, resuspended in 150 μL of 1% paraformaldehyde in MACS buffer, and stored overnight at 4° C. The cells were analyzed by flow cytometry using a FACS Canto II instrument (BD Bioscience, San Jose, CA, USA). For each sample, 10,000 cells were analyzed.

Molecule | binding result [2] | further results
B1 |  | binding result [1]: binds
B2 | binds | 
B3 | binds | 
B4 | binds | 
B5 |  | binding result [1]: binds
B6 | binds | 
B7 | binds | 
B8 | binds | 
B9 |  | binding to CD22 (enzyme immunoassay, OD405) (human CD22-His protein): bind well; binding to OCI-Ly7 cells (flow cytometry) (OCI-Ly7 cells): strong binding
